Assay results from the supplement of paper PMC7125110.
± gives the standard error. For some assays here: This sample holds only a part of the variants without activity.

B1: glmS ribozyme (parent)
chain: AUAAAAGCGCCAGAACUACAGAAAUGUAGUUGACGAGGAGGAGGUUUAUCGAAUUUUCGGCGGAUGCCUCCAAA

Key:
Conditions in all cases: with glucosamine-6-phosphate
glucosamine-6-phosphate [1] = variants of: B1; test: KM; higher = weaker cofactor use; RNA array
Outline: (§1)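 E. coli RNA polymerase transcribed barcoded ribozyme variants in situ on sequenced MiSeq chips, which were tracked via a hybridised Cy3 probe at 37 °C. Tiles were imaged over ~14 h after glucosamine-6-phosphate (40 μM to 10 mM) in HEPES/KCl/Mg(OAc)2 buffer was flowed in. Normalised per-tile medians were fit to one- or two-exponential decays for kobs, and kcat and KM came from weighted Michaelis–Menten fits.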

glucosamine-6-phosphate [2] = variants of: B1; test: self-cleavage kobs at 40 uM GlcN6P; higher = faster cleavage; RNA array
Outline: as §1

glucosamine-6-phosphate [3] = variants of: B1; test: self-cleavage kobs at 160 uM GlcN6P; higher = faster cleavage; RNA array
Outline: as §1

glucosamine-6-phosphate [4] = variants of: B1; test: self-cleavage kobs at 640 uM GlcN6P; higher = faster cleavage; RNA array
Outline: as §1

glucosamine-6-phosphate [5] = variants of: B1; test: self-cleavage kobs at 2500 uM GlcN6P; higher = faster cleavage; RNA array
Outline: as §1

glucosamine-6-phosphate [6] = variants of: B1; test: self-cleavage kobs at 10000 uM GlcN6P; higher = faster cleavage; RNA array
Outline: as §1

glucosamine-6-phosphate [7] = variants of: B1; test: kcat; higher = faster cleavage; RNA array
Outline: as §1

Variant | KM (glucosamine-6-phosphate [1]) | self-cleavage kobs at 40 uM GlcN6P (glucosamine-6-phosphate [2]) | self-cleavage kobs at 160 uM GlcN6P (glucosamine-6-phosphate [3]) | self-cleavage kobs at 640 uM GlcN6P (glucosamine-6-phosphate [4]) | self-cleavage kobs at 2500 uM GlcN6P (glucosamine-6-phosphate [5]) | self-cleavage kobs at 10000 uM GlcN6P (glucosamine-6-phosphate [6]) | kcat (glucosamine-6-phosphate [7])
AUAAAAACGCCAGAAAUACAGAAAUGUAGUUGACGAGGAGGAGGUUUAUCGAAUUUUCGGCGGAUGCCUCCAAA [G7A C16A] | 275 ± 120 µM |  |  |  |  |  | 
AUAAAAGCGCCAGAACUACAGAAAUGUAGUUGACGAGGUGGAGGUUUAUCGCAUUUUCGGCGGAUGCCUCCAAA [A39U A52C] | 2300 ± 420 µM |  |  |  |  |  | 
AUAAAAGCGCCAUAACUACAGAAAUGUAGUUGACGAGGAGGAGGUUUCUCGAAUUUUCGGCGGAUGCCUCCAAA [G13U A48C] | 3030 ± 610 µM |  |  |  |  |  | 
AUAAAAGCGCCAGAACUACAGAAAUGUAGUUGACGAGGAAGAGGUUUAUCGAAUUUUCAGCGGAUGCCUCCAAA [G40A G59A] | 1080 ± 65 µM |  |  |  |  |  | 
AUAAAAGCGCCAGGACUACAGAAAUGUAGUCGACGAGGAGGAGGUUUAUCGAAUUUUCGGCGGAUGCCUCCAAA [A14G U31C] | 891 ± 450 µM | 0.0012 ± 0.00019 s⁻¹ | 0.00337 ± 0.00062 s⁻¹ | 0.00963 ± 0.0011 s⁻¹ | 0.0154 ± 0.0043 s⁻¹ | 0.05 ± 0.013 s⁻¹ | 
AUAAAAGCGCCAGAACUACAGAAAUGUAGUUGACGAGGAGGAGGUUUAUCGAAUUUUCGGCGGAUGCCUUUAAA [C70U C71U] | 4150 ± 1900 µM | 3.19e-05 ± 5.6e-06 s⁻¹ | 8.1e-05 ± 8.1e-06 s⁻¹ | 0.000229 ± 1.8e-05 s⁻¹ | 0.000753 ± 0.00013 s⁻¹ | 0.00146 ± 0.00021 s⁻¹ | 0.00193 ± 0.00073 s⁻¹
AUAAAAGCGCCAGAACUACAGAAAUGUAGUUGACGAGGAGGAGGUUUAUCGAAUUUUCGGCGGAUGCCUCCAAA [unchanged] | 1990 ± 250 µM | 0.00143 ± 1.7e-05 s⁻¹ | 0.00462 ± 0.00025 s⁻¹ | 0.016 ± 0.00046 s⁻¹ | 0.0364 ± 0.0015 s⁻¹ | 0.0644 ± 0.0021 s⁻¹ | 0.0712 ± 0.0079 s⁻¹
AUAAAAGCGCCAGAACUACAGAAAUGUAGUUGACGAGGAGGUGGUUUAUCGAAUUUUCAGCGGAUGCCUCCAAA [A42U G59A] | 145 ± 23 µM |  |  |  |  |  | 
AUAAAAGCGCCUGAACUACAGAAAUGUAGUUGACGAGGAGGAGGUUUAUCGAAUUUUCGGCGGAUACCUCCAAA [A12U G66A] | 278 ± 130 µM | 0.0012 ± 0.00016 s⁻¹ | 0.00266 ± 0.0007 s⁻¹ | 0.00776 ± 0.002 s⁻¹ | 0.00745 ± 0.0017 s⁻¹ | 0.0359 ± 0.012 s⁻¹ | 
AUAAAAGCGCCAGAACUACAGAAAUGUAGUAGACGAGGAGGAGGAUUAUCGAAUUUUCGGCGGAUGCCUCCAAA [U31A U45A] | 813 ± 360 µM | 0.000743 ± 0.0001 s⁻¹ | 0.00207 ± 0.00071 s⁻¹ | 0.00537 ± 0.0013 s⁻¹ | 0.0106 ± 0.0024 s⁻¹ | 0.0333 ± 0.01 s⁻¹ | 
AUAAAAGCGCCAGAACUACAGAAAUGUAGUUGACGAGGAGGAGGUUUAUCGAAUUUUCGGCGGAUGCCCACAAA [U69C C70A] |  |  |  | 7.51e-05 ± 2e-05 s⁻¹ | 4.46e-05 ± 2.2e-05 s⁻¹ | 5.64e-05 ± 1.2e-05 s⁻¹ | 5.97e-05 ± 1.3e-05 s⁻¹
AUAAAAGCGCCAGAGCUACAGAAAUGUAGUUGACGAGGAGGAGGUUUAUCGAAAUUUCGGCGGAUGCCUCCAAA [A15G U54A] | 508 ± 200 µM | 0.000663 ± 0.00011 s⁻¹ | 0.00251 ± 0.00049 s⁻¹ | 0.006 ± 0.0015 s⁻¹ | 0.00683 ± 0.0018 s⁻¹ | 0.0333 ± 0.014 s⁻¹ | 
AUAAAAGCGCCAGAACUACAGAAAUGUAUUUGACGAGGAGGAGGUUUAUCUAAUUUUCGGCGGAUGCCUCCAAA [G29U G51U] | 40.3 ± 12 µM |  |  |  |  |  | 
AUAAAAGCGCCAGAACUACAGAAAUGUAGUUGACGAGUAGGAGGUUUAUCGAAUUUUCGGCGGAUGCCUCAAAA [G38U C71A] | 35.8 ± 15 µM |  |  |  |  |  | 
AUAAAAGCGCCAGAACUACAGAAAUGUAGUUGACGAGGAGGAGGUUUAUCGAAUUUUCGGCGGAUGCCUAAAAA [C70A C71A] | 181 ± 74 µM |  |  | 4.65e-05 ± 9.4e-06 s⁻¹ | 4.82e-05 ± 7.4e-06 s⁻¹ | 5.11e-05 ± 9.4e-06 s⁻¹ | 5.3e-05 ± 3.2e-06 s⁻¹
AUAAAAGCGCCAGAACUACAGAAAUGUAGUUGACGACGAUGAGGUUUAUCGAAUUUUCGGCGGAUGCCUCCAAA [G37C G40U] | 5820 ± 2300 µM |  |  |  |  |  | 
AUAAAAGCGCCAGAACUACAGAAAUGUAGUUGACUAGGAGGAGGUUUAUCUAAUUUUCGGCGGAUGCCUCCAAA [G35U G51U] | 31.5 ± 11 µM |  |  |  |  |  | 
AUAAAAGCGCCAGAACUACAGAAAUGUAGUUGACGAGGAGGAGGUUUAUCGAAUUUUCGGCGGAUGCCGUCAAA [U69G C70U] |  |  | 4.73e-05 ± 1.4e-05 s⁻¹ | 4.66e-05 ± 9.6e-06 s⁻¹ | 5.03e-05 ± 8.5e-06 s⁻¹ | 2.88e-05 ± 6.8e-06 s⁻¹ | 4.03e-05 ± 6.8e-06 s⁻¹
AUAAAAGCGCCAGAACUACAGAAAUGUAGUUGACGAGGAUGAGGUUUAUCGAAUUUUGGGCGGAUGCCUCCAAA [G40U C58G] | 4730 ± 1300 µM |  |  |  |  |  | 
AUAAAAGCGCAAGAACUACAGAAAUGUAGUUGUCGAGGAGGAGGUUUAUCGAAUUUUCGGCGGAUGCCUCCAAA [C11A A33U] | 983 ± 40 µM |  |  |  |  |  | 
AUAAAAGCGCCAGAACUACAGAAAUGUAGUUGACGUGGAGGAGGUUUAUCGAAUUUUCGGCGGAUGCCUCCAAA [A36U] | 584 ± 170 µM |  |  |  |  |  | 
AUAAAAGCGCCAGAACUACAGAAAUGUAGUUGACGAGGAGGAGGUUAAUCGAAUUUUCGGCGGGUGCCUCCAAA [U47A A64G] | 787 ± 380 µM | 0.000468 ± 8.5e-05 s⁻¹ | 0.00141 ± 0.00037 s⁻¹ | 0.00552 ± 0.0012 s⁻¹ | 0.00614 ± 0.0013 s⁻¹ | 0.0238 ± 0.0074 s⁻¹ | 
AUAAAAGCGCCAGAACUACAGAAAUGUAGUUGGCGAGUAGGAGGUUUAUCGAAUUUUCGGCGGAUGCCUCCAAA [A33G G38U] | 47.2 ± 22 µM |  |  |  |  |  | 
AUAAAAGCGCCAGAACUACAGAAAUGUAGUUGACGAGGAGGAGGUUUAUCGAAUUUUCGGCGGAUGCCGCUAAA [U69G C71U] |  |  | 7.88e-05 ± 2.1e-05 s⁻¹ | 9.65e-05 ± 2.5e-05 s⁻¹ | 6.25e-05 ± 1.2e-05 s⁻¹ | 3.11e-05 ± 9.4e-06 s⁻¹ | 4.96e-05 ± 1.4e-05 s⁻¹
AUAAAAGCGCCAGAACUACAGAAAUGUAGUUGACGCGGAGGAGGUUUAUCUAAUUUUCGGCGGAUGCCUCCAAA [A36C G51U] | 10.4 ± 3.3 µM |  |  |  |  |  | 
